Patent US20080194482A1, “Selective Apac2 Receptor Peptide Agonists” (priority 2005, published 2008)
Numbered stars: 1 amine (or outer) side, 2 acyl side, 3 side chain; on linkers, the order of the positions; unused ones are H or OH. Square brackets hold non-standard residues; d marks the D form. Ends that are not written are not given here. * marks the point of attachment. Tyr(OMe) = O-methyl-tyrosine, COc1ccc(C[C@H](N[*:1])C(=O)[*:2])cc1; Orn = NCCC[C@H](N)C(=O)O; Hexanoyl = CCCCCC(=O)*; Aib = CC(C)(N)C(=O)O

What was measured:
Experiment in all cases: cell-based or functional assay
rat VPAC2 receptor = biological target: T1, rat VPAC2 receptor (rat, UniProt P35000 23-437)
T1 sequence (looked up): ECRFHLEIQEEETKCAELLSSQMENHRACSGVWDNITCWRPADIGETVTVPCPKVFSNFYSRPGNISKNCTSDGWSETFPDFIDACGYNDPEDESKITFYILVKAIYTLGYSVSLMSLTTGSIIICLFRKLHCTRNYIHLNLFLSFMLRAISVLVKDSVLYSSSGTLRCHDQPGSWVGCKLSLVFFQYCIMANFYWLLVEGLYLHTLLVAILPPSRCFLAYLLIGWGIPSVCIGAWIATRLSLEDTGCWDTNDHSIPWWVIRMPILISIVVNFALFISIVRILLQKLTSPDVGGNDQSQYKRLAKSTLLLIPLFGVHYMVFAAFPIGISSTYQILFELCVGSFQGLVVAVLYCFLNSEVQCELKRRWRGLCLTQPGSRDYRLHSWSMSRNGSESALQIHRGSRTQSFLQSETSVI

rat VPAC1 receptor = biological target: T2, rat VPAC1 receptor (rat, UniProt P30083 31-459)
T2 sequence (looked up): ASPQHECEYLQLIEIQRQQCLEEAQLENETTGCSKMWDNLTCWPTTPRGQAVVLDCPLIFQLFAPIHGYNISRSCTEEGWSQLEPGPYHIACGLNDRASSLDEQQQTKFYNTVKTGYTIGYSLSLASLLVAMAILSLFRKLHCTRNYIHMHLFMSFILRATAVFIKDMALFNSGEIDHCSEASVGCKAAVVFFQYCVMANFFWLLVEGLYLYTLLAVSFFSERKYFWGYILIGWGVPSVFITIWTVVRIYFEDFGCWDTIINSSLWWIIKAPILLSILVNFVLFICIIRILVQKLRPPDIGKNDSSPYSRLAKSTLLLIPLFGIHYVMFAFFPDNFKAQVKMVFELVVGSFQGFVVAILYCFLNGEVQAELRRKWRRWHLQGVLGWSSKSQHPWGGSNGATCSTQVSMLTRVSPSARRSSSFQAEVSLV

human VPAC2 receptor = biological target: T3, human VPAC2 receptor (human, UniProt P41587 24-438)
T3 sequence (looked up): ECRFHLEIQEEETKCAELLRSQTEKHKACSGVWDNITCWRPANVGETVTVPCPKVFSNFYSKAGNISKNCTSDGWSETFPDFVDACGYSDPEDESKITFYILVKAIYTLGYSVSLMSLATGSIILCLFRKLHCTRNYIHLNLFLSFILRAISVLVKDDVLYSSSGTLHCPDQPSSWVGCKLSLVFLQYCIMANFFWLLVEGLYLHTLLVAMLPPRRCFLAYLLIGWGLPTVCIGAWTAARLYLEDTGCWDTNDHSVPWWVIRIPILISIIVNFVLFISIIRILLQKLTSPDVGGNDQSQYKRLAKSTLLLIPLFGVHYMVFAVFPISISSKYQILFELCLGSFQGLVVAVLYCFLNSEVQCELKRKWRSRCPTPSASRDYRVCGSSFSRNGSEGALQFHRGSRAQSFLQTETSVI

B1: VPAC2 receptor peptide agonist P487 (peptide)
peptide: HSDAVFTEQYTXLRXQLAAXXYLQSIXXGGPSSGAPPPS
modifications: N-terminal hexanoyl (C6); Tyr(OMe) at 10; Orn at 12, 21, 27 and 28; Aib at 15 and 20; C-terminal amide (-NH2)
Rat VPAC2 Receptor: DiscoveRx (EC50; nM), cAMP generation (rat VPAC2 receptor): 0.03 nM
Rat VPAC1 Receptor: DiscoveRx (EC50; nM), cAMP generation (rat VPAC1 receptor): 1.42 nM
Human VPAC2 Receptor: Alpha Screen (EC50; nM), cAMP generation (human VPAC2 receptor): 0.24 nM

Hexanoyl-HSDAVFTDQYTR[Aib]R[Aib]QLAA[Aib]KYLQSIK[Aib]KGGPSSGAPPPS [VPAC2 receptor peptide agonist P407]
Rat VPAC2 Receptor: DiscoveRx (EC50; nM), cAMP generation (rat VPAC2 receptor): 0.03 nM
Human VPAC2 Receptor: Alpha Screen (EC50; nM), cAMP generation (human VPAC2 receptor): 0.12 nM

Hexanoyl-HSDAVFTDNYTLLR[Aib]QVAA[Aib]KYLQSI[Orn]N[Orn]GGPSSGAPPPS [VPAC2 receptor peptide agonist P367]
Rat VPAC2 Receptor: DiscoveRx (EC50; nM), cAMP generation (rat VPAC2 receptor): 6.14 nM
Rat VPAC1 Receptor: DiscoveRx (EC50; nM), cAMP generation (rat VPAC1 receptor): 75.3 nM
Human VPAC2 Receptor: Alpha Screen (EC50; nM), cAMP generation (human VPAC2 receptor): 6.5 nM

Hexanoyl-HSDAVFTDNYTR[Aib]R[Aib]QVAA[Aib]KYLQSIK[Aib]KGGPSSGAPPPS [VPAC2 receptor peptide agonist P405]
Rat VPAC2 Receptor: DiscoveRx (EC50; nM), cAMP generation (rat VPAC2 receptor): 0.04 nM

Hexanoyl-HSEAVFTEQ[Tyr(OMe)]TR[Aib]R[Aib]QLAA[Aib]KYLQSIK[Aib]KGGPSSGAPPPS [VPAC2 receptor peptide agonist P409]
Human VPAC2 Receptor: Alpha Screen (EC50; nM), cAMP generation (human VPAC2 receptor): 0.19 nM

HSDAVFTDNYTXLRXSVAAXKYLQSIXNXGGPSSGAPPPS (N-terminal hexanoyl (C6); Orn at 12, 27 and 29; Aib at 15 and 20) [VPAC2 receptor peptide agonist P390]
Rat VPAC2 Receptor: DiscoveRx (EC50; nM), cAMP generation (rat VPAC2 receptor): 0.09 nM
Rat VPAC1 Receptor: DiscoveRx (EC50; nM), cAMP generation (rat VPAC1 receptor): 1.34 nM
Human VPAC2 Receptor: Alpha Screen (EC50; nM), cAMP generation (human VPAC2 receptor): 0.12 nM
